Laboratory results: patent publication US20230181753A1 (INSERM INSTITUT NATIONAL DE LA SANTE ET DE LA RECHERCHE …, published 2023)

T1: ICOS (Inducible T cell costimulator) (UniProt Q9Y6W8 21-199, limits assumed)
T1 sequence (looked up): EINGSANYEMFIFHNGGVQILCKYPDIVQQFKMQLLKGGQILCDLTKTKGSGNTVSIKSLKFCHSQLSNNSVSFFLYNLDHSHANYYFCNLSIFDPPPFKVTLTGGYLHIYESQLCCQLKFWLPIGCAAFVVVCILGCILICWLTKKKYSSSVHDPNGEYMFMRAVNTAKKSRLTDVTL


Assays:
[1] = substrate: ICOS (Inducible T cell costimulator) (UniProt Q9Y6W8); experiment: flow cytometry, staining of MJ cells
[2] = substrate: ICOS (Inducible T cell costimulator) (UniProt Q9Y6W8); experiment: flow cytometry, staining of HUT78 cells
[3] = substrate: ICOS (Inducible T cell costimulator) (UniProt Q9Y6W8); experiment: flow cytometry, staining of MyLa cells
[4] = biological target: T1, ICOS (Inducible T cell costimulator); experiment: cell-based or functional assay

| Binder | MFI ratio [1] | MFI ratio [2] | MFI ratio [3] | IC50, cell viability (alamarBlue), HUT78 cells [4] [ng/mL] | IC50, cell viability (alamarBlue), Jurkat-ICOS cells [4] [ng/mL] | IC50, cell viability (alamarBlue), MJ cells [4] [ng/mL] | IC50, cell viability (alamarBlue), MyLa cells [4] [ng/mL] |
| --- | --- | --- | --- | --- | --- | --- | --- |
| 314.8 mAb (antibody, V domains shown) VH: QVQLQQPGTELMKPGASVKLSCKASGYTFTTYWMHWVKQRPGQGLEWIGEIDPSDSYVNYNQNFKGKATLTVDKSSSTAYIQLSSLTSEDSAVYFCARSPDYYGTSLAWFDYWGQGTLVTVST VL: DIVMTQAAPSVPVTPGESVSISCRSSKSPLHSNGNIYLYWFLQRPGQSPQLLIYRMSNLASGVPDRFSGSGSGTTFTLKISRVEAEDVGVYYCMQHLEYPYTFGGGTKLEIK | 96 | 4.5 | 144 | – | – | – | – |
| anti-ICOS-PBD ADC (antibody, V domains shown, coupled to pyrrolobenzodiazepine (PBD); site and linker not stated) VH: QVQLQQPGTELMKPGASVKLSCKASGYTFTTYWMHWVKQRPGQGLEWIGEIDPSDSYVNYNQNFKGKATLTVDKSSSTAYIQLSSLTSEDSAVYFCARSPDYYGTSLAWFDYWGQGTLVTVST VL: DIVMTQAAPSVPVTPGESVSISCRSSKSPLHSNGNIYLYWFLQRPGQSPQLLIYRMSNLASGVPDRFSGSGSGTTFTLKISRVEAEDVGVYYCMQHLEYPYTFGGGTKLEIK | – | – | – | 9 | 0.7 | 0.8 | 1.2 |
| anti-ICOS-MMAE ADC (anti-ICOS 314.8-MMAE) (antibody, V domains shown, coupled to MMAE; site and linker not stated) VH: QVQLQQPGTELMKPGASVKLSCKASGYTFTTYWMHWVKQRPGQGLEWIGEIDPSDSYVNYNQNFKGKATLTVDKSSSTAYIQLSSLTSEDSAVYFCARSPDYYGTSLAWFDYWGQGTLVTVST VL: DIVMTQAAPSVPVTPGESVSISCRSSKSPLHSNGNIYLYWFLQRPGQSPQLLIYRMSNLASGVPDRFSGSGSGTTFTLKISRVEAEDVGVYYCMQHLEYPYTFGGGTKLEIK | – | – | – | – | 6.7 | 36.2 | 8.2 |
